According to patent US20130059772A1, “Use of Repeat Sequence Protein Polymers in Personal Care Compositions” (DANISCO US INC., priority 2003, published 2013):

What was measured:
elastase = test: Elastase inhibition assay (fibroblast lysate, STANA substrate); assay type: biochemical, human; conditions: positive control
Procedure: The RSPP test materials were also tested to determine their effect(s) on elastase activity. In these experiments, human dermal fibroblasts were used as a source of the elastase enzyme. This enzyme was partially purified from the fibroblasts by lysing the cells in an elastase buffer and retaining the soluble portion of the lysate. Portions of this fibroblast lysate were then incubated with test materials and a synthetic elastase substrate, Suc-(Ala3)-p-Nitroaniline (STANA). Elastase acts upon this substrate to release p-nitroaniline, which can be detected spectrophotometrically by measuring the absorbance at a wavelength of 405 nm. […]
The fibroblasts were washed twice with 15 ml of phosphate buffered saline with each wash removed via aspiration. […] The protein concentration of the fibroblast lysate was determined using the Pierce BCA Protein Assay kit (see below for details) and the fibroblast lysate was stored at −75° C. until used (for up to 1 year).
Upon determining the protein concentration of the lysate, a small sample was obtained and the elastase activity of the lysate was determined at 1×, 0.5× and 0.25× concentrations. The activity was determined for each of the different concentrations in exactly the same way that the uninhibited sample was treated in the elastase assay (see below). […] After 1.25 hours, the well plate was removed and read in a 96-well plate reader at 405 nm. […]

[1] = UVB protection, initial MTT assay (material applied after UVB); conditions: human, cultured dermal fibroblasts
Procedure: (§1) In these experiments, the test material was tested at six concentrations with two duplicate sets of cells prepared. […] Changes in cell viability were then determined 48 hours post material application via an MTT assay, as described above.
(§2) Fibroblasts were seeded into the individual wells of a 96 well plate in 100 μl FGM, and incubated overnight at 37±2° C. and 5±1% CO2. On the following day, the media were removed via aspiration to eliminate any non-adherent cells and replaced with 100 μl of fresh FGM. The cells were grown until confluent, with a media change every 48 to 72 hours.
(§3) An UVLM-26 lamp was used as the source of UVB light. UV light intensity was measured using a UVX radiometer coupled to a UVB sensor probe (UV Products) to determine the time required to deliver an approximate dose of 50 mj/cm^2. Prior to UVB exposure, the FGM was replaced with 100 μl PBS. After exposure, the PBS was removed and replaced with FGM supplemented with either the test materials, 20 μM Trolox, or left unsupplemented. A duplicate set of cells was also prepared and treated as described above, with the exception that they were not exposed to UVB light. […] The cells were allowed to incubate with the test materials for 48 hours, and then changes in cell viability were determined via an MTT assay. […]
(§4) After the 48-hour incubation, the cell culture medium was removed and the fibroblasts were washed with PBS to remove any remaining test material. […] The 96-well plate was then read at 540 nm using isopropyl alcohol as a blank.
(§5) The mean MTT absorbance value for the negative control cells (non-UVB exposed and non test material treated cells) was calculated and used to represent 100% value for cell number. The individual MTT values from the cells undergoing the various treatments was then divided by the mean value for the negative control cells and expressed as a percent, to determine the change in cell viability caused by each treatment. MTT scores for each treatment are expressed as means±the standard deviation of the mean.

[2] = system: cultured dermal fibroblasts; test: as above; conditions: Homo sapiens, Fibroblast, light or radiation study, 48 h, read-out: +UVB Percent Viability
Procedure: as §1, §2, §3, §4, §5

[3] = system: Fibroblasts (HDFn Cell Line); test: Initial pilot cell viability dose response (MTT assay); conditions: for cell viability, percent of untreated cells: 48 hours
Procedure: Initial screening was conducted to identify a test range suitable to determine the effect of a broad range of test material concentrations on cell viability. […] Cultured fibroblasts were exposed to the test materials for 48 hours and then changes in cell viability were determined using an MTT assay (i.e., a colorimetric analysis of the metabolic activity of the cultured cells, described in greater detail below).
The purple crystals are extracted from the cells with isopropanol and the amount of crystal formation quantified spectrophotometrically. […] A decrease in color intensity can be a sign of toxicity.
Fibroblasts (Cascade Biologics, HDFn Cell Line, lot#1C0914) were seeded into the individual wells of either a 96-well plate (for the initial pilot work to determine concentration effects on cell viability) in 100 μl of Fibroblast Growth Media (FGM) or in 12-well plates (for the measurement of collagen, elastin and MMP-1) in 1.0 ml of FGM and incubated overnight at 37±2° C. and 5±1% CO2. On the following day, the medium was removed via aspiration to eliminate any non-adherent cells and replaced with fresh FGM. The cells were grown until confluent, with a media change every 48 to 72 hours. Upon reaching confluency, the cells were treated for 24 hours with Dulbecco's Modified Essential Media (DMEM) supplemented with 1.5% FBS to wash out any effects from the growth factors included in the normal FGM. After this 24-hour wash out period, the cells were treated with the test materials at the specified concentrations dissolved in DMEM with 1.5% FBS. Untreated cells (negative controls) received DMEM with 1.5% FBS. The cells were incubated for 48 hours and at the end of the incubation period cell culture medium was either discarded (pilot work) or collected and stored frozen at −75° C. The test materials were tested in triplicate.
After the 2-day incubation, the cell culture medium was removed and the fibroblasts were washed twice with PBS to remove any remaining test material. After the final wash, either 100 μl (96-well plates) or 300 μl (12-well plates) of DMEM supplemented with 0.5 mg/ml MTT were added to each well and the cells were incubated for 1 hour at 37±2° C. and 5±1% CO2. After the incubation, the DMEM/MTT solution was removed and the cells were washed again once with PBS and then either 100 μl (96-well plates) or 1 ml (12-well plates) of isopropyl alcohol were added to each well to extract the purple formazin crystals. For the 12-well plates, two hundred microliters of the isopropyl extracts was transferred to a 96-well plate. The 96-well plates were read at 540 nm using isopropyl alcohol as a blank. The mean MTT absorbance value for the negative control cells was calculated and used to represent 100% value for cell viability. The individual MTT values from the cells undergoing the various treatments were then divided by the mean value for the negative control cells and expressed as a percent, to determine the change in cell viability caused by each treatment.

elastin = test: Elastin assay (Fastin colorimetric assay of culture media); assay type: cell-based, human; conditions: summary in words
Procedure: Elastin is released by fibroblasts (soluble elastin) into the extracellular space where it is then cross-linked to other elastin proteins to form an extensive network of fibers and sheets (insoluble elastin). Soluble elastin can be readily measured from cell culture medium via a colorimetric assay.
The test materials were tested in triplicate.
In these experiments, the Biocolor Fastin Elastin Assay kits were used. A 50 μl aliquot of sample material (cell culture medium for soluble elastin) was mixed with 1.0 ml of cold Fastin Precipitating Reagent in a 1.5-ml microcentrifuge tube. […]
To release the elastin-bound dye, 1.0 ml of Fastin Destain reagent was added to each microcentrifuge tube. […] The absorbance of this solution was measured by a plate reader at 490 nm (200 μl volume read).
An elastin standard curve was generated using 12.5, 25, and 50 μg aliquots of an Elastin Standard into microcentrifuge tubes (in duplicate). These samples were treated as described above (Elastin Assay) and the absorbance values were used to generate a standard curve of known concentrations. To derive the standard curve for the elastin assay, the absorbance was plotted against the elastin concentration in μg/ml for the standards. […] Mean absorbance values for the test materials and untreated samples were then used to estimate the amount of elastin present in each sample.

Molecule: CC(C)C[C@H](NP(=O)(O)O[C@@H]1O[C@@H](C)[C@H](O)[C@@H](O)[C@H]1O)C(=O)N[C@@H](Cc1c[nH]c2ccccc12)C(=O)O [Phosphoramidon, phosphoramidon, reference compound]
- Percent Inhibition (elastase; 30 nM): 43%
- Percent Inhibition (elastase; 100 uM): 96%

Molecule: Cc1c(C)c2c(c(C)c1O)CCC(C)(C(=O)O)O2 (stereo not shown) [Trolox]
- viability at 48 h, 20 µM [1]: 120 ± 11%
- viability at 20 µM [2]: 77 ± 9%

Molecule: GC2596-26-A: monodispersed 13-mer SELP47K RSPP (Example 1)
- cell viability, percent of untreated cells ([3]; 0.0014%): 99 ± 1%
- cell viability, percent of untreated cells ([3]; 0.007%): 101 ± 5%
- cell viability, percent of untreated cells ([3]; 0.014%): 99 ± 10%
- cell viability, percent of untreated cells ([3]; 0.07%): 96 ± 6%
- cell viability, percent of untreated cells ([3]; 0.14%): 101 ± 4%
- cell viability, percent of untreated cells ([3]; 0.5%): 171 ± 4%
- cell viability, percent of untreated cells ([3]; 1%): 138 ± 7%
- effect on the number of viable cells ([3]; initial dose response, summary in words): strongly stimulate increases in the number of viable cells
- effect on elastin synthesis (elastin): excellent increase
